Results taken from patent US20250057927A1, “ALPHA-1 A[…] FROM YEAST FOR USE IN THE TREATMENT OF VIRAL INFECTIONS” (priority 2021, published 2025).

System: lentiviral pseudoparticles harbouring the SARS-CoV-2 spike protein of Wuhan Hu-1 isolate
Type: cell-based

Molecule	IC50 of inhibiting pseudoparticle entry into Caco2 cells [µg/mL]	estimated IC90 [µg/mL]	pseudoparticle entry	inhibition of pseudoparticle entry compared to Prolastin	inhibition of the entry of SARS-CoV-2	inhibition of pseudoparticle entry	activity in the pseudoparticle assay compared to Prolastin
Prolastin	3160	20000	about 10%	–	–	–	–
rec α1AT Fraction 52 (protein) EDPQGDAAQKTDTSHHDQDHPTFNKITPNLAEFAFSLYRQLAHQSNSTNIFFSPVSIATAFAMLSLGTKADTHDEILEGLNFNLTEIPEAQIHEGFQELLRTLNQPDSQLQLTTGNGLFLSEGLKLVDKFLEDVKKLYHSEAFTVNFGDTEEAKKQINDYVEKGTQGKIVDLVKELDRDTVFALVNYIFFKGKWERPFEVKDATEEEDFHVDQVTTVKVPMMKRLGMFNIQHCKKLSSWVLLMKYLGNATAIFFLPDEGKLQHLENELTHDIITKFLENEDRRSASLHLPKLSITGTYDLKSVLGQLGITKVFSNGADLSGVTEEAPLKLSKAVHKAVLTIDEKGTEAAGAMFLEAIPMSIPPEVKFNKPFVFLMIEQNTKSPLFMGKVVNPTQK	–	–	–	greater inhibition	inhibit the entry of SARS-CoV-2 similar to Prolastin	–	–
rhAAT (protein) EDPQGDAAQKTDTSHHDQDHPTFNKITPNLAEFAFSLYRQLAHQSNSTNIFFSPVSIATAFAMLSLGTKADTHDEILEGLNFNLTEIPEAQIHEGFQELLRTLNQPDSQLQLTTGNGLFLSEGLKLVDKFLEDVKKLYHSEAFTVNFGDTEEAKKQINDYVEKGTQGKIVDLVKELDRDTVFALVNYIFFKGKWERPFEVKDATEEEDFHVDQVTTVKVPMMKRLGMFNIQHCKKLSSWVLLMKYLGNATAIFFLPDEGKLQHLENELTHDIITKFLENEDRRSASLHLPKLSITGTYDLKSVLGQLGITKVFSNGADLSGVTEEAPLKLSKAVHKAVLTIDEKGTEAAGAMFLEAIPMSIPPEVKFNKPFVFLMIEQNTKSPLFMGKVVNPTQK	–	8000	–	–	–	complete inhibition	–
rec α1AT Fraction 53 (protein) EDPQGDAAQKTDTSHHDQDHPTFNKITPNLAEFAFSLYRQLAHQSNSTNIFFSPVSIATAFAMLSLGTKADTHDEILEGLNFNLTEIPEAQIHEGFQELLRTLNQPDSQLQLTTGNGLFLSEGLKLVDKFLEDVKKLYHSEAFTVNFGDTEEAKKQINDYVEKGTQGKIVDLVKELDRDTVFALVNYIFFKGKWERPFEVKDATEEEDFHVDQVTTVKVPMMKRLGMFNIQHCKKLSSWVLLMKYLGNATAIFFLPDEGKLQHLENELTHDIITKFLENEDRRSASLHLPKLSITGTYDLKSVLGQLGITKVFSNGADLSGVTEEAPLKLSKAVHKAVLTIDEKGTEAAGAMFLEAIPMSIPPEVKFNKPFVFLMIEQNTKSPLFMGKVVNPTQK	–	–	–	greater inhibition	inhibit the entry of SARS-CoV-2 similar to Prolastin	–	greater activity
